Assay results as given in patent publication US10568344B2, “Methods of improving animal performance” (Novozymes A/S, priority 2015, dated 2020).
Where two headings read alike, the source gives them in different places. Marks after values point to notes of the source that are not given here.

Columns and labels:
[1] = In vivo piglet trial, growth performance; set-up: species or system weaned piglets
Description: The trial was performed from Oct. 23 to Dec. 4, 2014 at the Research Center for Animal Nutrition (DSM Nutritional Products France, F-68305 Village-Neuf) according to the official French guidelines for experiments with live animals. One hundred and four castrated male crossbred (Large-White (female)×Redon (male)) weaned piglets having 28 days of age supplied by the commercial farm “[…] du Rhin” located in Balgau (France), were used in a 42-day experiment. The initial bodyweight of the piglets was 7.88±0.675 kg. They were sorted by body weight into 32 groups of 3 or 4 piglets and randomly allotted to each dietary treatment. Each group of animals was placed in one flat-deck cages and allocated to one of the different treatments. Each treatment was replicated with 8 cages using a total of 26 animals (6 cages of 3 animals/treatment and 2 cages of 4 animals/treatment) per treatment. […] Animals were housed in an environmentally controlled room. Room temperature was initially 27° C. and was lowered weekly by about 2° C. until 21-22° C. and relative humidity percentage was 50%. The experimental diets (Pre-Starter and Starter) were fed ad libitum in two feeding phases from day 0 to 14 (phase 1, Pre-starter) and day 14 to 42 (phase 2, Starter). The ingredient composition and the calculated nutrient levels of the experimental diets for phases 1 and 2 are presented in table 11. Both diets were formulated to meet the animals' requirements according NRC (2012) and were fed in pelleted form. Pelleting conditions were at 70° C. for 30 seconds. […] No additional enzymes (e.g. phytase) were added to the feed. […] Appropriate amount of the liquid preparations of lysozyme was diluted in water and sprayed onto the respective pelleted feed to get the final concentrations in the feed corresponding to the different treatments. For procedural balance of all treatments the same volume of water were also sprayed onto the pellets of the control diets. Body weight of the individual animals and feed consumption per pen were recorded on days 14 and 42 of the study. […] The experimental unit was the piglet, except for ADFI and FCR which were measured by cage, and in both cases, treatment was used as class variable. One-factorial ANOVA and Student-Newman-Keuls test was used to assess differences among means in treatment groups.

[2] = test system: Clostridium perfringens DSM756; type: cell-based; details: for Diameter of clearing zone: lysozymes 100 μg/ml, bacitracin 50 μg/ml
[3] = test system: Exiguobacterium undae (DSM14481); experiment: Lysozyme activity turbidity assay (optical density drop); type: biochemical; details: pH 6
[4] = In vivo broiler trial 3, growth performance; set-up: species or system male broiler chickens; Motality: unit not given here
Description: The in vivo trial was carried out as described in example 7, except the feed was supplemented with the GH25 lysozyme (SEQ ID NO: 1) at 12.5 or 25 mg per kg feed, the GH24 lysozyme (SEQ ID NO: 4) at 12.5 or 25 mg per kg feed or with Avilamycin at an inclusion level of 10 mg/kg. No additional enzymes (e.g. phytase) were added to the feed. The experimental diets (Starter, Grower and Finisher) were based on soybean meal, wheat and rye (12%) as main ingredients (Table 8). The diets were formulated to contain 225 g crude protein and 12.5 MJ/kg MEN for the starter period, 215 g crude protein and 12.8 MJ/kg MEN for the grower period and 205 g crude protein and 13.0 MJ/kg MEN for the finisher period.

[5] = test system: Micrococcus lysodeikticus ATTC No. 4698; experiment: Lysozyme activity turbidity assay (optical density drop); details: pH 6
[6] = Finisher (d 36-42), 12.5 mg/kg feed
[7] = Finisher (d 36-42), 25 mg/kg feed
[8] = Grower (d 22-36), 12.5 mg/kg feed
[9] = Grower (d 22-36), 25 mg/kg feed
[10] = Starter (d 1-22), 12.5 mg/kg feed
[11] = Starter (d 1-22), 25 mg/kg feed
[12] = Whole period (d 1-42), 12.5 mg/kg feed
[13] = Whole period (d 1-42), 25 mg/kg feed

B1: SEQ ID NO: 4: mature amino acid sequence of a wild type GH24 lysozyme from Trichophaea saccata (protein, listed as Trichophaea saccata)
chain: YPVKTDLHCRSSPSTSASIVRTYSSGTEVQIQCQTTGTSVQGSNVWDKTQHGCYVADYYVKTGHSGIFTTKCGSSSGGGSCKPPPINAATVALIKEFEGFVPKPAPDPIGLPTVGYGHLCKTKGCKEVPYSFPLTQETATKLLQSDIKTFTSCVSNYVKDSVKLNDNQYGALASWAFNVGCGNVQTSSLIKRLNAGENPNTVAAQELPKWKYAGGKVMPGLVRRRNAEVALFKKPSSVQAHPPKC
modifications: mat_peptide (1)..(245)
[1]; day 0-14, 50 ppm
  ADFI, % relative NC: 92.5%
  ADFI, Mean: 333 g/day
  ADWG, % relative NC: 91.4%
  ADWG, Mean: 265 g/day
  FCR, % relative NC: 102.6%
  FCR, Mean: 1.272^b
[1]; day 0-42, 50 ppm
  ADFI, % relative NC: 100.8%
  ADFI, Mean: 740^b g/d
  ADWG, % relative NC: 107.8%
  ADWG, Mean: 538 g/day
  EPEF, % relative NC: 115.3%
  EPEF, Mean: 391
  FCR, % relative NC: 92.9%
  FCR, Mean: 1.379^a
[1]; day 14-42, 50 ppm
  ADFI, % relative NC: 101.5%
  ADFI, Mean: 944^c g/d
  ADWG, % relative NC: 111.8%
  ADWG, Mean: 674 g/day
  FCR, % relative NC: 90.9%
  FCR, Mean: 1.404^a
[1]; overall period (day 0 to day 42), 50 mg/kg
  Improvement on FCR compared to the negative control: 7.1%
[1]; starter period, day 15 to day 42, 50 mg/kg
  Improvement to FCR compared to NC: 9.1%
[1]; starter period, 50 mg/kg
  Improvement of ADWG compared to the negative control diet: 11.8%
[1]; whole period, 50 mg/kg
  EPEF improvement compared to the negative control: 15.3%
  Improvement of ADWG compared to the negative control diet: 7.8%
[2]; Experiment 1, 1/2 MHB pH 6
  Diameter of clearing zone: 11 mm
[2]; Experiment 1, 1/10 MHB pH 7
  Diameter of clearing zone: 9 mm
[2]; Experiment 2, 1/2 MHB pH 6
  Diameter of clearing zone: 10 mm
[2]; Experiment 2, 1/10 MHB pH 7
  Diameter of clearing zone: 8 mm
[2]; both conditions tested (1/10 MHB pH 7 and ½ MHB pH 6)
  Zones around the wells challenged with the enzyme: 8-11 mm
[3]
  Lysozyme activity as measured by Optical Density Drop: ++ (pH 6)
[4]; 12.5 mg/kg
  Benefit over the NC diet: did not show any benefit
[4]; [6]
  FCR: 1.969
  FCR, Relative to C (%): 100.4%
  Feed intake: 1560 g/b
  Feed intake, Relative to C (%): 104.8%
  Weight gain: 795 g/b
  Weight gain, Relative to C (%): 104.4%
[4]; [7]
  FCR: 1.919
  FCR, Relative to C (%): 97.9%
  Feed intake: 1524 g/b
  Feed intake, Relative to C (%): 102.5%
  Weight gain: 800 g/b
  Weight gain, Relative to C (%): 105.1%
[4]; [8]
  FCR: 1.692
  FCR, Relative to C (%): 98.2%
  Feed intake: 2298 g/b
  Feed intake, Relative to C (%): 100.5%
  Weight gain: 1359 g/b
  Weight gain, Relative to C (%): 102.4%
[4]; [9]
  FCR: 1.714
  FCR, Relative to C (%): 99.5%
  Feed intake: 2336 g/b
  Feed intake, Relative to C (%): 102.2%
  Weight gain: 1364 g/b
  Weight gain, Relative to C (%): 102.7%
[4]; [10]
  FCR: 1.469
  FCR, Relative to C (%): 102.0%
  Feed intake: 1608 g/b
  Feed intake, Relative to C (%): 101.9%
  Weight gain: 1095 g/b
  Weight gain, Relative to C (%): 99.9%
[4]; [11]
  FCR: 1.414
  FCR, Relative to C (%): 98.1%
  Feed intake: 1603 g/b
  Feed intake, Relative to C (%): 101.6%
  Weight gain: 1133 g/b
  Weight gain, Relative to C (%): 103.4%
[4]; [12]
  EPEF: 408
  EPEF, Relative to C (%): 97.6%
  FCR: 1.683
  FCR, Relative to C (%): 100.2%
  Feed intake: 5466 g/b
  Feed intake, Relative to C (%): 102.1%
  Motality: 11.3
  Weight gain: 3249 g/b
  Weight gain, Relative to C (%): 102.0%
[4]; [13]
  EPEF: 425
  EPEF, Relative to C (%): 101.7%
  FCR: 1.657
  FCR, Relative to C (%): 98.6%
  Feed intake: 5450 g/b
  Feed intake, Relative to C (%): 101.9%
  Motality: 10.0
  Weight gain: 3290 g/b
  Weight gain, Relative to C (%): 103.3%
[4]; whole period, 25 mg/kg
  EPEF improvement compared to NC diet: 2.4%
  FCR improvement compared to NC diet: 1.2%
[5]
  Lysozyme activity as measured by Optical Density Drop: ++ (pH 6)
